Measurements: the supplement of paper PMC7877785
± gives the uncertainty stated by the source.

Test: self-splicing fitness, log relative to wild type (ln ratio); higher = more splicing; Tetrahymena group I intron in knt gene, E. coli kanamycin selection, DiMSum; sequences stand for … in CUCUCU…GGAGGGAAAAGUUAUCAGGCAUGCACCUGGUAGCUAGUCUUUAAACCAAUAGAUUGCAUCGGUUUAAAAGGCAAGACCGUCAAAUUGCGGGAAAGGGGUCAACAGCCGUUCAGUACCAAGUCUCAGGGGAAACUUUGAGAUGGCCUUGCAAAGGGUAUGGUAAUAAGCUGACGGACAUGGUCCUAACCACGCAGCCAAGUCCUAAGUCAACAGAUCUUCUGUUGAUAUGGAUGCAGUUCACAGACUAAAUGUCGGUCGGGGAAGAUGUAUUCUUCUCAUAAGAUAUAGUCGGACCUCUCCUUAAUGGGAGCUAGCGGAUGAAGUGAUGCAACACUGGAGCCGCUGGGAACUAAUUUGUAUGCGAAAGUAUAUUGAUUAGUUUUGGAGUACUCGUGGUCG
Summary of the method: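 Library with all eight P1ex-region intron nucleotides randomised, intron inside the knt kanamycin-resistance gene on pET-22b(+), in E. coli BL21(DE3). Cells grew overnight at 37°C or 30°C on LB agar with or without 25 μg/mL kanamycin (plus 100 μg/mL carbenicillin, 50 μM IPTG, 0.2% rhamnose), in six replicate transformations. Pooled colonies were amplicon-sequenced on Illumina HiSeq 2500. DiMSum fitness is the error-weighted combination of wild-type-normalised replicate fold changes, kanamycin versus none.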

Sequence | self-splicing fitness (ln) (30 °C) | self-splicing fitness (ln) (37 °C)
ACGUAGCAAUAUUACGCACC | -1.18 ± 0.11 | -0.224 ± 0.16
ACUAAGCAAUAUUACGCCUG | -1.78 ± 0.14 | -0.595 ± 0.15
ACCCAGCAAUAUUACGUUGC | -2.99 ± 0.089 | -0.989 ± 0.076
CAAGAGCAAUAUUACGACUC | -2.72 ± 0.24 | -1.84 ± 0.27
GUUUAGCAAUAUUACGGCCU | -0.716 ± 0.15 | 0.714 ± 0.15
AGUAAGCAAUAUUACGCUAA | -2.36 ± 0.17 | -2.3 ± 0.19
AGAGAGCAAUAUUACGAAUG | -2.07 ± 0.22 | -3.27 ± 0.47
CUAUAGCAAUAUUACGCUUU | -4.86 ± 0.45 | -3.17 ± 0.28
CCAAAGCAAUAUUACGCUAA | -2.86 ± 0.23 | -2.7 ± 0.3
CCUGAGCAAUAUUACGCCCA | -3.82 ± 0.47 | -2.05 ± 0.34
AGCAAGCAAUAUUACGAAAA | -3.39 ± 0.19 | -2.39 ± 0.18
UGGCAGCAAUAUUACGUUUA | -0.478 ± 0.084 | 0.426 ± 0.096
GUUAAGCAAUAUUACGGCAU | -0.746 ± 0.12 | 0.0583 ± 0.18
CAUAAGCAAUAUUACGUUAA | -2.6 ± 0.23 | -2.92 ± 0.4
ACGGAGCAAUAUUACGCCAA | -3.46 ± 0.33 | -3.34 ± 0.47
GAACAGCAAUAUUACGAUUC | -1.65 ± 0.072 | -1.21 ± 0.11
CAUAAGCAAUAUUACGGUCG | 0.0543 ± 0.064 | -0.0112 ± 0.079
AACUAGCAAUAUUACGUCGG | -3.57 ± 0.14 | -2.26 ± 0.16
CAUCAGCAAUAUUACGUUUU | -2.67 ± 0.1 | -1.8 ± 0.11
CUUUAGCAAUAUUACGCGGU | -2.14 ± 0.19 | -0.796 ± 0.22
AGGCAGCAAUAUUACGAUCG | -0.369 ± 0.077 | 0.135 ± 0.093
GGUCAGCAAUAUUACGGUGG | -4.17 ± 0.28 | -1.32 ± 0.13
UCACAGCAAUAUUACGACUU | -3.28 ± 0.2 | -1.65 ± 0.12
AUAGAGCAAUAUUACGCGAU | -2.28 ± 0.35 | -2 ± 0.26
ACCGAGCAAUAUUACGUAUU | -3.21 ± 0.16 | -1.98 ± 0.17

Sequence | self-splicing fitness (ln) (30 °C) | self-splicing fitness (ln) (37 °C)
AAUCAGCAAUAUUACGCGGG | -1.33 ± 0.095 | -1.42 ± 0.099
UUCCAGCAAUAUUACGUGGA | -3.28 ± 0.24 | -2.95 ± 0.26
GUCGAGCAAUAUUACGAGUU | -2.66 ± 0.18 | -2.52 ± 0.28
GAUGAGCAAUAUUACGGAGA | -2.91 ± 0.5 | -3 ± 0.47
UAUAAGCAAUAUUACGAACU | -1.94 ± 0.28 | 0.235 ± 0.24
UAGGAGCAAUAUUACGACUA | -0.46 ± 0.13 | -1.53 ± 0.15
AGGCAGCAAUAUUACGGACC | -0.728 ± 0.14 | -0.53 ± 0.18
GAGGAGCAAUAUUACGACAC | -0.706 ± 0.35 | -0.696 ± 0.31
GGAUAGCAAUAUUACGACCU | 0.689 ± 0.32 | 0.93 ± 0.25
UCUCAGCAAUAUUACGUCCG | -2.5 ± 0.28 | -2.26 ± 0.41
UCAGAGCAAUAUUACGCCCA | -2.06 ± 0.44 | –
GAACAGCAAUAUUACGUACG | -0.821 ± 0.081 | -0.0209 ± 0.11
CUGGAGCAAUAUUACGGCAU | -3.26 ± 0.47 | –
CGUAAGCAAUAUUACGUGCG | -2.95 ± 0.17 | -2.17 ± 0.16
ACGCAGCAAUAUUACGAUUA | -1.54 ± 0.091 | -0.902 ± 0.079
GAAUAGCAAUAUUACGGUGA | -1.69 ± 0.12 | -1.36 ± 0.11
GUCUAGCAAUAUUACGGAUC | -1.99 ± 0.28 | -1.85 ± 0.27
GGCUAGCAAUAUUACGUACA | -1.07 ± 0.12 | -0.185 ± 0.11
AGGUAGCAAUAUUACGCGUA | -1.22 ± 0.017 | -0.701 ± 0.034
UUCGAGCAAUAUUACGACCA | -2.28 ± 0.43 | -1.33 ± 0.28
GCAGAGCAAUAUUACGUUUU | -3.54 ± 0.17 | -3.12 ± 0.2
AAAAAGCAAUAUUACGGGCG | -0.625 ± 0.075 | -0.721 ± 0.091
UCCGAGCAAUAUUACGGAUA | -2.34 ± 0.25 | -2.61 ± 0.19
GAUGAGCAAUAUUACGGACU | -1.79 ± 0.25 | -1.66 ± 0.38
CUUAAGCAAUAUUACGUGAC | -1.91 ± 0.13 | -2.06 ± 0.14

Sequence | self-splicing fitness (ln) (30 °C) | self-splicing fitness (ln) (37 °C)
GCAUAGCAAUAUUACGUAAA | -2.43 ± 0.074 | -1.05 ± 0.08
AUACAGCAAUAUUACGAUUG | -3.14 ± 0.14 | -2.59 ± 0.2
UGUGAGCAAUAUUACGCGUU | -2.62 ± 0.2 | -1.89 ± 0.25
GGAGAGCAAUAUUACGGGCG | -3.79 ± 0.29 | -2.37 ± 0.26
CUACAGCAAUAUUACGCUAA | -2.93 ± 0.28 | -2.29 ± 0.29
UUUAAGCAAUAUUACGACAU | -1.45 ± 0.015 | -0.621 ± 0.034
UAUUAGCAAUAUUACGACUC | -2.24 ± 0.21 | -1.08 ± 0.3
AGAGAGCAAUAUUACGCCGG | -1.82 ± 0.25 | –
AGUCAGCAAUAUUACGGCUA | -0.605 ± 0.14 | -0.512 ± 0.13
UGUGAGCAAUAUUACGGGGG | -3.23 ± 0.26 | -2.35 ± 0.23
AUCAAGCAAUAUUACGCUGC | -2.4 ± 0.41 | -0.934 ± 0.33
AAUGAGCAAUAUUACGCUUG | -3.09 ± 0.17 | -2.11 ± 0.18
GCAAAGCAAUAUUACGUCUU | -1.14 ± 0.074 | -1.11 ± 0.075
CUUGAGCAAUAUUACGAGUA | -2.07 ± 0.37 | -2.52 ± 0.32
CGCUAGCAAUAUUACGAAUG | -1.33 ± 0.17 | -0.192 ± 0.16
GUGAAGCAAUAUUACGCAGU | -2.6 ± 0.22 | -1.02 ± 0.19
AGAAAGCAAUAUUACGGGUG | -1.41 ± 0.089 | -1.36 ± 0.14
UGGAAGCAAUAUUACGACAG | -0.462 ± 0.13 | -0.603 ± 0.19
CUGCAGCAAUAUUACGCCCG | -0.269 ± 0.098 | 0.148 ± 0.13
AUGUAGCAAUAUUACGAUUC | -2.52 ± 0.31 | -1.12 ± 0.33
UGGGAGCAAUAUUACGCAAG | -2.15 ± 0.36 | –
UUGGAGCAAUAUUACGGGCC | – | -1.33 ± 0.42
UGAAAGCAAUAUUACGUCCA | 0.114 ± 0.088 | -0.497 ± 0.11
GUCUAGCAAUAUUACGAUAG | – | -2.96 ± 0.27
GCACAGCAAUAUUACGGAGA | -2.85 ± 0.12 | -2.16 ± 0.13

Sequence | self-splicing fitness (ln) (30 °C) | self-splicing fitness (ln) (37 °C)
GUUAAGCAAUAUUACGCUAG | -1.64 ± 0.11 | 0.113 ± 0.14
GCCUAGCAAUAUUACGCAGA | -3.96 ± 0.33 | -2.06 ± 0.23
UACAAGCAAUAUUACGAAAG | -2.61 ± 0.11 | -2.37 ± 0.16
UUGCAGCAAUAUUACGUUUC | -3.59 ± 0.27 | -3.17 ± 0.34
UCCUAGCAAUAUUACGGAUU | -4.22 ± 0.23 | -2.36 ± 0.21
CGCAAGCAAUAUUACGCCUU | -2.63 ± 0.17 | -2.62 ± 0.26
GAGUAGCAAUAUUACGGGUU | -2.25 ± 0.14 | -1.81 ± 0.2
AGCGAGCAAUAUUACGUUUC | -4.07 ± 0.21 | -2.77 ± 0.18
AAACAGCAAUAUUACGACAU | -0.514 ± 0.011 | -0.112 ± 0.032
CUACAGCAAUAUUACGCGGU | -3.49 ± 0.3 | -2.17 ± 0.28
AAGUAGCAAUAUUACGGGGG | -2.88 ± 0.26 | -3.2 ± 0.35
AAAGAGCAAUAUUACGGACA | -2.68 ± 0.3 | -1.81 ± 0.32
GGGUAGCAAUAUUACGCUCU | -3.13 ± 0.34 | –
GAAUAGCAAUAUUACGGACG | -1.84 ± 0.16 | -0.471 ± 0.22
CUCAAGCAAUAUUACGCAUA | -3.29 ± 0.22 | -3.07 ± 0.34
GCCGAGCAAUAUUACGGUCU | -2.23 ± 0.13 | -2.26 ± 0.24
CUGUAGCAAUAUUACGUGGG | -3.78 ± 0.22 | -2.05 ± 0.18
GCGAAGCAAUAUUACGCGAU | -2.49 ± 0.44 | -1.74 ± 0.47
CGAUAGCAAUAUUACGCUAC | -2.95 ± 0.29 | –
AAUAAGCAAUAUUACGCACA | -0.471 ± 0.099 | 0.253 ± 0.13
CGCGAGCAAUAUUACGAGGA | -3.16 ± 0.22 | -2.16 ± 0.18
CGCUAGCAAUAUUACGAAAU | -3.5 ± 0.22 | -2.01 ± 0.2
